We go through 31 sequences from the supplement of paper PMC9170038.

The data set deals with MS2 coat protein. The data set is described as follows: apparent KD of MS2 coat protein; designed switch direction (-1 OFF switch, 1 ON switch): -1; higher = weaker reporter binding. The method in brief: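 On Illumina chips, designed RNA switches with common flanks were made by stalled E. coli RNA polymerase. Titrations with SNAP-549-labelled MS2 coat protein, doubling from 0.7 or 1.5 nM to 3 µM, were done with no input, with 200 uM small-molecule ligand, or with an oligonucleotide input. Apparent KD is the median per design over clusters, from curve fits of normalised cluster fluorescence.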

[1] abbreviates: Eterna round: R95, input ligand: FMN 200 uM.
The mark [2] stands for this setting: Eterna round: R95, input ligand: microRNA oligo, concentration not stated.
Setting [3] is: Eterna round: R95, input ligand: none.

For the sequence “GAGAAGGUAGGAUAUACGAAGAAAGAGGGUAGGAAGAAUACACAUGAGGAUCACCCAUGUAGAAGGACCAAGAG [Mat - Exclusion 2 - Mod of my Tesla design - D47] (puzzle: Exclusion 2)”, the “apparent KD of MS2 coat protein” value runs as follows: under setting [1], 32.9 nM; under setting [2], 17.8 nM; under setting [3], 23 nM.

In the case of “GAGAGAUAGAUAGAGGACGACAUGAGGAUCACCCAUGUGAGGGAAAUGUUAAGGAGAAAGCUUUUUGCUCGUCUUAA [JR_SV3TOV1_Sub034] (puzzle: Sensor v3, turn-off variant 1)”, the “apparent KD of MS2 coat protein” value is 123 nM under setting [1], 57.7 nM under setting [2] and 152 nM under setting [3].

Take “GAGCAGGAAGGAUAUACAUGAGGAUCACCCAUGUACCAUCAAGGCUUUGAUUUUCACGGUAGAAGGUCCCAAUA [Sotece] (puzzle: Exclusion 3)”: the “apparent KD of MS2 coat protein” value under setting [2] amounted to 34.8 nM.

As to “GAGGAGCAAGGAUAUACGAGGAGAGGGAAGAGAGGAGAGAGACAUGAGGAUCACCCAUGUAGAAGGUGCAAGGG [JR_Exclu2_Sub093] (puzzle: Exclusion 2)”, the “apparent KD of MS2 coat protein” value was 116 nM under setting [1], 131 nM under setting [2] and 180 nM under setting [3].

Regarding “GAGGUACAUGAGGAUCACCCAUGUGAGGAUAUAGGUAGAGAUUGAGAGAGGUGGAGGACUAGAAGGCACAGUGG [JR_Exclu1_Sub040] (puzzle: Exclusion 1)”, the “apparent KD of MS2 coat protein” value by setting is: under setting [1], 59.6 nM; under setting [2], 46 nM; under setting [3], 60.3 nM.

In the case of “GAGGUGUUAGGAUAUCGGAGAUGGAGAAGAACGGGAUGAGCCGAGAAGGAACAUGAGGAUCACCCAUGUAGGUG [JR_Exclu4_Sub031] (puzzle: Exclusion 4)”, the “apparent KD of MS2 coat protein” value under setting [1] came out at 415 nM, the “apparent KD of MS2 coat protein” value under setting [2] stood at 420 nM and the “apparent KD of MS2 coat protein” value under setting [3] was determined as 553 nM.

As to “GAGUACUGAGGAUAUACAUGAGGAUCACCCAUGUGUUCCAACUAGGAAUCUAGAGUAUGUAGAAGGCAGUGCUG [salish99_ex3_r4_704] (Eterna round: R97, puzzle: Exclusion 3)”, the “apparent KD of MS2 coat protein” value was 145 nM (input ligand: FMN 200 uM) and 130 nM (input ligand: none).

As to “GAGUGACAUGAGGAUCACCCAUGUAAGGAUAUACGGUUGGUAGAGAGAGGGCGAAAGGGUAGAAGGUACGAAGG [JR_Exclu1_Sub054] (puzzle: Exclusion 1)”, the “apparent KD of MS2 coat protein” value is, setting by setting: under setting [1], 64.6 nM; under setting [2], 76 nM; under setting [3], 95.2 nM.

Turning to “GAUAAGGGAGGAUAUACGGAACGGUUUAUGCUCAGUGAGGCACAUGAGGAUCACCCAUGUAGAAGGCCCGACAG [Gezaerti] (puzzle: Exclusion 2)”, under setting [2], the “apparent KD of MS2 coat protein” value turned out to be 25.6 nM.

Consider “GAUAAGGUAGGAUAUACGAAUAAAGAGGGUAGUAAUAAUACACAUGAGGAUCACCCAUGUAGAAGGACCAAUAG [Mat - Exclusion 2 - Mod of my Tesla design - D42] (puzzle: Exclusion 2)”, for which the “apparent KD of MS2 coat protein” value runs as follows: under setting [1], 41.2 nM; under setting [2], 19.3 nM; under setting [3], 17.9 nM.

On to “GAUCAACAUGAGGAUCACCCAUGUGAGGAUAUGAUACUAUGUACUUCGGUACAUAGUAUCAGAAGGCAUUAGGA [Ex1-3: 39] (puzzle: Exclusion 1)”, for which the “apparent KD of MS2 coat protein” value under setting [2] was found to be 52.3 nM.

Take “GAUCACUGAGGAUAUACACAGAUACAAAGUAUCUGAUGGUGACAUGAGGAUCACCCAUGUAGAAGGCAGAGGUC [Omei Ex2 B7] (Eterna round: R97, puzzle: Exclusion 2)”: the “apparent KD of MS2 coat protein” value is, setting by setting: (input ligand: FMN 200 uM) 290 nM; (input ligand: none) 495 nM.

With “GAUCAUGCAGGAUAUACAGUAACCAUGAAAACAUGGAUCAAACAUGAGGAUCACCCAUGUAGAAGGGCAUGAUC [Omei Ex2 A22] (Eterna round: R97, puzzle: Exclusion 2)”, the “apparent KD of MS2 coat protein” value turned out to be 38.8 nM (input ligand: FMN 200 uM) and 18.2 nM (input ligand: none).

For “GAUCGACAUGAGGAUCACCCAUGUCAGGAUAUCGUCACUGGAGCCUCGGCUCCAGUGACGAGAAGGGAUAUAAU [E1/16-A2] (Eterna round: R97, puzzle: Exclusion 1)”, the “apparent KD of MS2 coat protein” value by setting is: (input ligand: FMN 200 uM) 31.6 nM; (input ligand: none) 32 nM.

Consider “GAUGAGGUAGGAUAUACGAGAAGAUAGGGUAGAUAGAUAACACAUGAGGAUCACCCAUGUAGAAGGACCAGUAG [Mat - Exclusion 2 - Mod of my Tesla design - D72] (puzzle: Exclusion 2)”, for which the “apparent KD of MS2 coat protein” value under setting [2] amounted to 32.5 nM.

Take “GAUGCUUCGGCAUCUACAAGCUUUUUGCUCGUCUUAUUAACAUGAGGAUCACCCAUGUCAAAGAGACCUCAUGUAUU [Sensor v3 - turn-off variant 2 - 4] (puzzle: Sensor v3, turn-off variant 2)”: the “apparent KD of MS2 coat protein” value runs as follows: under setting [1], 314 nM; under setting [2], 18.9 nM; under setting [3], 381 nM.

Consider “GAUGGCUAAGGAUAUACAUAGAAGAAUUGAACUUGGAUUAUACAUGAGGAUCACCCAUGUAGAAGGUAGUCAUC [ExGluten 3 - Jieux - Exclusion 2] (Eterna round: R97, puzzle: Exclusion 2)”, for which the “apparent KD of MS2 coat protein” value runs as follows: (input ligand: FMN 200 uM) 82.9 nM; (input ligand: none) 24.6 nM.

“GAUGUGGGUUUCCGGAGUAACAUGAGGAUCACCCAUGUAGAAGUUGGAGGGAUCAAGCUUUUUGGUCGUCACACGUG [JR_SV3TOV1_Sub053] (puzzle: Sensor v3, turn-off variant 1)”: the “apparent KD of MS2 coat protein” value runs as follows: under setting [1], 213 nM; under setting [2], 227 nM; under setting [3], 306 nM.

With “GAUUAACAUGAGGAUCACCCAUGUGAGGAUAUGGACUUGCCCACUUACCCUUUAGAGUCUAGAAGGCGCAUCUC [1986#30] (Eterna round: R97, puzzle: Exclusion 1)”, the “apparent KD of MS2 coat protein” value runs as follows: (input ligand: FMN 200 uM) 28.7 nM; (input ligand: none) 20.8 nM.

Consider “GAUUAACAUGAGGAUCACCCAUGUGAGGAUAUUGACUUGCUCACUUUCCCAUUAGAGUCGAGAAGGCGCAUCUG [1986#19] (Eterna round: R97, puzzle: Exclusion 1)”, for which the “apparent KD of MS2 coat protein” value runs as follows: (input ligand: FMN 200 uM) 34.9 nM; (input ligand: none) 60.5 nM.

In the case of “GAUUACUGCAAGCUUAGGGACAUGAGGAUCACCCAUGUUCGUCUUAUUGAUCUAGGUACGCUGACGUACCUAGAUCU [JL-sv1-2.29 Brourd mod] (puzzle: Sensor v3, turn-off variant 1)”, the “apparent KD of MS2 coat protein” value was 14.7 nM under setting [1], 19.4 nM under setting [2] and 13.8 nM under setting [3].

With “GAUUAGCAAGUGAGAUCCCACAUGAGGAUCACCCAUGUGCUCGUCUUAUAAGGUACUGUGACGAAAGUCACGGUACC [Mat - Sensor, turn-off var - Eli Mod - D6] (Eterna round: R97, puzzle: Sensor, turn-off variant 1)”, the “apparent KD of MS2 coat protein” value by setting is: (input ligand: FMN 200 uM) 424 nM; (input ligand: none) 226 nM.

Regarding “GAUUAUGCGAGCUUUAGGGACAUGAGGAUCACCCAUGUUCGUCUUAUUAAUCUAGGUACACUGACAUACCUAAAUCU [JMF 64] (puzzle: Sensor v3, turn-off variant 1)”, the “apparent KD of MS2 coat protein” value reads like this: under setting [1], 21.3 nM; under setting [2], 30.5 nM; under setting [3], 21 nM.

In the case of “GAUUAUGCGAGCUUUAGGGACAUGAGGAUCACCCAUGUUCGUCUUAUUAGUCUAAAUGCACUGACAUACCUAAAUCU [JMF 73] (puzzle: Sensor v3, turn-off variant 1)”, the “apparent KD of MS2 coat protein” value worked out at 12.9 nM under setting [1], 15.3 nM under setting [2] and 13.9 nM under setting [3].

On to “GAUUAUGCGAGCUUUAGGGACAUGAGGAUCACCCAUGUUCGUCUUAUUAGUCUAGGUGCACUAACAUACCUAAAUCU [JMF 35] (puzzle: Sensor v3, turn-off variant 1)”, for which the “apparent KD of MS2 coat protein” value by setting is: under setting [1], 20.7 nM; under setting [2], 36 nM; under setting [3], 21.3 nM.

In the case of “GAUUAUGCGAGCUUUAGGGACAUGAGGAUCACCCAUGUUCGUCUUAUUAGUCUGAGUGCACUGACAUACCUAAAUCU [JMF 85] (puzzle: Sensor v3, turn-off variant 1)”, the “apparent KD of MS2 coat protein” value under setting [1] turned out to be 15.4 nM, the “apparent KD of MS2 coat protein” value under setting [2] was found to be 22 nM and the “apparent KD of MS2 coat protein” value under setting [3] came out at 16.7 nM.

As for “GAUUAUGCGAGCUUUAGGGACAUGAGGAUCACCCAUGUUCGUCUUAUUGAUCUGGAUGCACUAACAUACCUAAAUCU [JMF 27] (puzzle: Sensor v3, turn-off variant 1)”, the “apparent KD of MS2 coat protein” value came out at 51.1 nM under setting [1], 64.6 nM under setting [2] and 49.3 nM under setting [3].

For the sequence “GAUUAUGCGAGCUUUAGGGACAUGAGGAUCACCCAUGUUCGUCUUAUUGGUCUAGAUACACUGACAUACCUAAAUCU [JMF 58] (puzzle: Sensor v3, turn-off variant 1)”, the “apparent KD of MS2 coat protein” value reads like this: under setting [1], 14.8 nM; under setting [2], 19.1 nM; under setting [3], 14 nM.

For “GAUUAUGCGAGCUUUAGGGACAUGAGGAUCACCCAUGUUCGUCUUAUUGGUCUGGAUACGCUGACAUACCUAAAUCU [JMF 97] (puzzle: Sensor v3, turn-off variant 1)”, the “apparent KD of MS2 coat protein” value under setting [1] was determined as 18.6 nM, the “apparent KD of MS2 coat protein” value under setting [2] was 28.4 nM and the “apparent KD of MS2 coat protein” value under setting [3] turned out to be 20.9 nM.

For “GAUUAUGCGAGCUUUAGGGACAUGAGGAUCACCCAUGUUCGUCUUGUUGAUCUAGGUGCACUGACAUACCUAAAUCU [JMF 88] (puzzle: Sensor v3, turn-off variant 1)”, the “apparent KD of MS2 coat protein” value amounted to 20.9 nM under setting [1], 27.7 nM under setting [2] and 22.4 nM under setting [3].

Consider “GAUUGACAUGAGGAUCACCCAUGUGAGGAUAUCGGCCGGACCGUGCUGGCUUCCGUCGCGAGAAGGCGCAUAGG [Exclusion 1 V41] (puzzle: Exclusion 1)”, for which the “apparent KD of MS2 coat protein” value under setting [1] amounted to 78.2 nM, the “apparent KD of MS2 coat protein” value under setting [2] is 35.5 nM and the “apparent KD of MS2 coat protein” value under setting [3] was 38.9 nM.
